Our source for the stoichiometry N values is publication PMC5585171.

By stoichiometry N is commonly meant a count of units in the complex or per binding partner.

The experiment has as its target Medicago truncatula L-histidinol dehydrogenase (Medicago truncatula). The experiment in a line: SEC; HiLoad Superdex 200 16/60; 25 mM Hepes-NaOH pH 7.5, 100 mM KCl, 50 mM NaCl, 1 mM TCEP; data not shown.

Consider “Medicago truncatula L-histidinol dehydrogenase (enzyme)”, for which the stoichiometry N was determined as 2.
